Data on 7 molecules can be found in patent publication US20170355992, “FACTOR V/Va-TARGETING APTAMER COMPOSITONS AND METHODS OF USING THE SAME” (Duke University, published 2017).

In series [1] the target is T1, Coagulation Factor Va (FVa), modified (Homo sapiens, UniProt P12259;P12259 P12259:29-737,P12259:1574-2224).
T1 chain 1: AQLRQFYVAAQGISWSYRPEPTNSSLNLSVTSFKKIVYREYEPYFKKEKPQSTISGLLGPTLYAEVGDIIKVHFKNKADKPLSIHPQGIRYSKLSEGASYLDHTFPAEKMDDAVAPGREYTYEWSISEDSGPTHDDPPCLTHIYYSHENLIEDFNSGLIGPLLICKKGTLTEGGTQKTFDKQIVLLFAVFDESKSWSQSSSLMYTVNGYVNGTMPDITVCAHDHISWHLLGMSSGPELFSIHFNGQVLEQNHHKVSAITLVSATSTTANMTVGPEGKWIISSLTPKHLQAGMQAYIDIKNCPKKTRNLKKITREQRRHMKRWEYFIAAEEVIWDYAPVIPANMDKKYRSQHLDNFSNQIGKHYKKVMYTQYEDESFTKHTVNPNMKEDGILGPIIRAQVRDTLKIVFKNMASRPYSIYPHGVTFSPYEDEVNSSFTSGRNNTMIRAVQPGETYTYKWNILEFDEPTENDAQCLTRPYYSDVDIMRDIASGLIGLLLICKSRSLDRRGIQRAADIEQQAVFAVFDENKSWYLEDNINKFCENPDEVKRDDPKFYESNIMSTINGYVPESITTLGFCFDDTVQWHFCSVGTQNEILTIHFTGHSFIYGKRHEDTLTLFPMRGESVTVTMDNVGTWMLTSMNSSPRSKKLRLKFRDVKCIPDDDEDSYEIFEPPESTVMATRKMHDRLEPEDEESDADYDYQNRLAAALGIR
T1 chain 2: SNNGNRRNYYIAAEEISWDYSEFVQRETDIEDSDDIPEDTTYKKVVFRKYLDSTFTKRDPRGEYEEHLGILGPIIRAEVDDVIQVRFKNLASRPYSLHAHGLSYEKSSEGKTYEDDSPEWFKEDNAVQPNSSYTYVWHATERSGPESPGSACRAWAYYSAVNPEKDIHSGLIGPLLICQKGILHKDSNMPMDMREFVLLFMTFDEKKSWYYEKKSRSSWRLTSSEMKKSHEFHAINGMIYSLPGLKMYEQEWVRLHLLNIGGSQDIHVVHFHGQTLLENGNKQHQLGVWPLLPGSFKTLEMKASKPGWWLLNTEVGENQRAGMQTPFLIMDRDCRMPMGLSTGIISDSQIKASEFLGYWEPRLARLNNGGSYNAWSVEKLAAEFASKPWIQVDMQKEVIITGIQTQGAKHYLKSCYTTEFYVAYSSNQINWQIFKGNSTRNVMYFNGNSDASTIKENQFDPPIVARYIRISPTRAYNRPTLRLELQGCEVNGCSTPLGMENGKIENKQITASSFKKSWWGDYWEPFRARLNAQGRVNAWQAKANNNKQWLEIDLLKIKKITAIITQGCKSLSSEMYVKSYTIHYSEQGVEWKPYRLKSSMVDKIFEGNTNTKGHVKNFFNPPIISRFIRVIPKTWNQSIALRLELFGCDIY
The series is described as follows: filter; lead clone chosen by aPTT activity and binding to FV and FVa; no value given. Particulars: tags: modified FVa, protease-stabilised form described previously; label: 5'-32P.

The target of series [2] is T2, Coagulation Factor V (FV), modified (Homo sapiens, UniProt P12259 P12259:29-2224). The description is as above. Particulars: tags: modified FV, protease-stabilised form described previously; label: 5'-32P.
Series [3] concerns the target T1, Coagulation Factor Va (FVa), modified. The series is described as follows: SPR; three runs: 6.222, 5.408, 5.115; text ~6 nM; HBS 2 mM CaCl2, 25 C. To be noted: tags: modified FVa, protease-stabilised form described previously; label: 5'-biotin. The procedure: (§1) The T18.3 binding constants were determined using surface plasmon resonance (SPR) with a BiaCore3000 (GE Healthcare). This method was used to determine apparent KDs for T18.3 to modified FV, modified FVa, the FV heavy chain, and the FV light chain. The T18.3 aptamer was synthesized (Biosynthesis, Lewisville, Tex.) and included a biotin and PEG 11 spacer on the 5′ end to allow for immobilization of the aptamer on a biotin CAPture chip kit (GE Healthcare). Prior to chip coating, the biotinylated T18.3 was refolded using the same protocol as the in vitro transcribed T18.3 by heating to 95° C. for 3 minutes followed by 3 minutes at room temperature. Aptamer conjugation onto the chip was achieved by flowing aptamer solution over the chip at a rate of 2 μL/min for 5 minutes. For binding to the modified FV, FVa, and purified FV heavy chain, 5.0 ng of aptamer was coated onto the chip. For the purified FV light chain experiments 15.3 ng of aptamer was coated onto the chip. Binding experiments using SPR was performed at 25° C. in HBS with CaCl2, without the addition of BSA or PEG 8000. […] Increasing concentrations of protein were flowed over the T18.3-coated chip and apparent KD was determined by calculating the differences in response units (RU) from buffer for each protein concentration immediately before the end of each protein injection and plotted as ΔRU versus protein concentration. […]
On the technique in general: SPR reads the build-up and loss of mass on a sensor chip optically.

For series [4], the target named is T2, Coagulation Factor V (FV), modified. The series is described as follows: SPR; three runs: 16.55, 10.00, 8.213; text ~10 nM; HBS 2 mM CaCl2, 25 C. Particulars: tags: modified FV, protease-stabilised form described previously; label: 5'-biotin. As for the experimental part: as §1
A further series concerns the target Factor V light chain (UniProt P12259 P12259:1574-2224). In words: SPR; three runs: 1.926, 1.504, 7.997; text ~5 nM; HBS 2 mM CaCl2, 25 C. To be noted: label: 5'-biotin. The procedure: as §1
For another series, the target named is Factor Xa (Homo sapiens, UniProt P00742;P00742 P00742:41-179,P00742:235-488). In words: filter; no binding up to 1000 nM FXa. Particulars: label: 5'-32P.
Series [5] concerns the target T2, Coagulation Factor V (FV), modified. The series is described as follows: filter; no binding above starting library. Particulars: tags: modified FV, protease-stabilised form described previously; label: 5'-32P.
Series [6] addresses T1, Coagulation Factor Va (FVa), modified. The series is described as follows: filter; lead clone; also at 2.0 uM inhibits FVa-phospholipid docking by light scattering (p125). To be noted: tags: modified FVa, protease-stabilised form described previously; label: 5'-32P.
The target in series [7] is T2, Coagulation Factor V (FV), modified. The series is described as follows: FP_none filter. To be noted: tags: modified FV, protease-stabilised form described previously; label: 5'-32P. The procedure: (§2) Apparent binding affinity of the aptamers to a purified protein was determined using double filter nitrocellulose binding assays. Binding of the radiolabeled pooled RNA, 11HMT, and 11Mut2 to modified FV and FVa was assessed by incubating trace amounts of radiolabeled RNA with serial dilutions of the purified target protein. For SELEX round binding, pooled RNAs were incubated with modified FV or FVa diluted two fold from 0 nM to 750-800 nM for both proteins. For 11HMT, the radiolabeled RNAs were incubated with both proteins from 0 nM to 500 nM. The radiolabeled RNAs were denatured and re-folded in Hepes-buffered saline (HBS) with CaCl2 (20 mM Hepes pH 7.4, 150 mM NaCl, 2 mM CaCl2), 0.01% bovine serum albumin (BSA), and 0.1% w/v polyethylene glycol 8000 (PEG 8000) by incubating at 95° C. for 3 minutes followed by cooling to room temperature for 3 minutes. The radiolabeled RNA alone was incubated at 37° C. for 5 minutes, followed by incubation with the protein in HBS with CaCl2, 0.01% BSA, and 0.1% w/v PEG 8000 at 37° C. for 5 minutes. […] Bound and unbound RNA was quantitated using a Storm 825 phosphoimager (GE Healthcare, Little Chalfont, Buckinghamshire, UK) and quantified via densitometry.
Target sequence in this assay (P12259 29-2224, one chain of several): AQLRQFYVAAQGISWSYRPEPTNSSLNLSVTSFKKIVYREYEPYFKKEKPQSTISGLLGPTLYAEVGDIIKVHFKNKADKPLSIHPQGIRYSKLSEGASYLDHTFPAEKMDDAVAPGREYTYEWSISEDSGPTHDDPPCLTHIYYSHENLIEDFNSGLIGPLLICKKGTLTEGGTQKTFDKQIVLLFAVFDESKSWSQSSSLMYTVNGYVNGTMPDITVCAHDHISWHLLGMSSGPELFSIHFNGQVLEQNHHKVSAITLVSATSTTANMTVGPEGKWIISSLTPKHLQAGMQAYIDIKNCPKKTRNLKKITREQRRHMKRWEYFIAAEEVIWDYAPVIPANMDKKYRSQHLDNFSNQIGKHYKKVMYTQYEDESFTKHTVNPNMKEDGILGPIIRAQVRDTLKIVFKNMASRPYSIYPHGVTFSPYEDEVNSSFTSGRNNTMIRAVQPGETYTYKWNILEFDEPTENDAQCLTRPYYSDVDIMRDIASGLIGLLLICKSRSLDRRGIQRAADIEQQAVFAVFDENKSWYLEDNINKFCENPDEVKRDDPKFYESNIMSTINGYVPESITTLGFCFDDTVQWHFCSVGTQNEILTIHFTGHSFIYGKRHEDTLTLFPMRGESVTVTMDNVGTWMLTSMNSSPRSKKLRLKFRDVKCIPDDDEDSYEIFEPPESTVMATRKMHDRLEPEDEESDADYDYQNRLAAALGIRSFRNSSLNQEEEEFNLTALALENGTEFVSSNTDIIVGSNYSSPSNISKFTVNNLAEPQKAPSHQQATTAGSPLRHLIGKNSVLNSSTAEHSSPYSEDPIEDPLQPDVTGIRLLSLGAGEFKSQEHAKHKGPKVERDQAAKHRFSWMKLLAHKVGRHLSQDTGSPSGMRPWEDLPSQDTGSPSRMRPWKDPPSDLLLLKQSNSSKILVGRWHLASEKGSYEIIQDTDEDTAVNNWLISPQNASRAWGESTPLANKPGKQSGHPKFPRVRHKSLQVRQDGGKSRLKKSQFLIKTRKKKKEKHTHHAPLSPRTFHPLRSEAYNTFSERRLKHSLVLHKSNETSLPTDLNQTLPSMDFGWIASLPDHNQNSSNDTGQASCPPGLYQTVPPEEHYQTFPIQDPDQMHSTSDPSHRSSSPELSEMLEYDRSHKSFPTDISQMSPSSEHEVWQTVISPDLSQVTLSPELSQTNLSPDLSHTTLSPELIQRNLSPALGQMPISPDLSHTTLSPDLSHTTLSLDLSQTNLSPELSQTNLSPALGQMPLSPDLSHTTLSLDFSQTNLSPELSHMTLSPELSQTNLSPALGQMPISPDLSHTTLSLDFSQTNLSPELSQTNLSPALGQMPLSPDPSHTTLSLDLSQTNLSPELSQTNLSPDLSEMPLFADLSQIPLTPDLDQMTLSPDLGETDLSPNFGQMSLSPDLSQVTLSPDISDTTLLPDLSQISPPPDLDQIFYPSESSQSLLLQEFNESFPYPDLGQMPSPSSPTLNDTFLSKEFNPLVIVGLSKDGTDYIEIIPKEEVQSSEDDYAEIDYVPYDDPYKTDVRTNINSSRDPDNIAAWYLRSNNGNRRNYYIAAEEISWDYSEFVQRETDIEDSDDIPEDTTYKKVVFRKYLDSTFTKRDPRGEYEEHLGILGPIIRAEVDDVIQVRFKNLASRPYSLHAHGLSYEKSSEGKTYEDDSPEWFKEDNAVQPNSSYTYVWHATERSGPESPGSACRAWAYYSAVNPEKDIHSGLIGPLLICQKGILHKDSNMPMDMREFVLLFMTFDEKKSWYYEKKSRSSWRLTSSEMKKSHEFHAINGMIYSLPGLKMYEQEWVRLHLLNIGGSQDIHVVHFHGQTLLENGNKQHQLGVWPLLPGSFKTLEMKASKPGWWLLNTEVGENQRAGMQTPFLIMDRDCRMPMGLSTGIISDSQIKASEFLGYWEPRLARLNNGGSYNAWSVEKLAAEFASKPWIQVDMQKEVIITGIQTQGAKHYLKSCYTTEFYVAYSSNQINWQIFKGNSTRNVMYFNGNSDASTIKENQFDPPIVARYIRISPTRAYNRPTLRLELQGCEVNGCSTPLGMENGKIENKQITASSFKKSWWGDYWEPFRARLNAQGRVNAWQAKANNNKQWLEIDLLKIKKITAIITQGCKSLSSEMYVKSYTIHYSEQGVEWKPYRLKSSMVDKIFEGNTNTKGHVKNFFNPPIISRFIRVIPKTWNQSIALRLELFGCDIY

The target of series [8] is T1, Coagulation Factor Va (FVa), modified. In words: filter; HBS 2 mM CaCl2, 0.01% BSA, 0.1% PEG 8000, 37 C; low Bmax. Particulars: tags: modified FVa, protease-stabilised form described previously; label: 5'-32P. The procedure: as §2
Series [9] shares this target. In words: filter; no binding above starting library. Particulars: tags: modified FVa, protease-stabilised form described previously; label: 5'-32P. As for the experimental part:
as §2

The target of series [10] is T2, Coagulation Factor V (FV), modified. The series is described as follows: filter; no binding above starting library. Particulars: tags: modified FV, protease-stabilised form described previously; label: 5'-32P. The procedure:
as §2
The source holds these as a separate data set.

What is called Kd is a measure of binding affinity in units of concentration.

Residue numbers refer to the chain shown, from its start.

Sequence of Factor Xa (P00742 41-179, chain 1 of 2): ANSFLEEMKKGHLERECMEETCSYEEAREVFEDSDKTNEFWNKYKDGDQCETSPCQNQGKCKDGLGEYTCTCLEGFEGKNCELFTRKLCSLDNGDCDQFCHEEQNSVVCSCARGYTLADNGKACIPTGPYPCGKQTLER
Sequence of Factor Xa (P00742 235-488, chain 2 of 2): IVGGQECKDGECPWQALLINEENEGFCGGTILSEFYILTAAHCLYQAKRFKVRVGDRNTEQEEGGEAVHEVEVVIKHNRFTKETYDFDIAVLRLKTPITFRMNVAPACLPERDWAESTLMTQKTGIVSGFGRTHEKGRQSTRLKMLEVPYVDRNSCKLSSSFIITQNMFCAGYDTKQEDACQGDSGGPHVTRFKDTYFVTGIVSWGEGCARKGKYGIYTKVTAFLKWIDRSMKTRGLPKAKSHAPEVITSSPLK

B1: FVa R9c11 (ssRNA)
RNA: GGGAGGACGAUGCGGUCACGCCCCUCAGGAUCCAACGCACAAUUACGUGCCUUGUCAGACGACUCGCUGAGGAUCCGAGA
modifications: 2'-F C and U
For B1, the binding result in series [1] and in [2] was “binds” throughout.

B2: T18.3 biotinylated (ssRNA)
RNA: GGACUUGGAUAACCUCACCGCAAUGGCGGCUUGUCAGACGACUCGCUGAGGAUCCGAG
modifications: 2'-F C and U; 5' biotin and PEG11 spacer
In the case of B2, the dissociation constant Kd stood at 5.64 nM in [3], 11.7 nM in series [4] and 3.47 nM with Factor V light chain.

B3: 18.3Mut1 (ssRNA)
RNA: B2 RNA with C30A, U31G, U32G
modifications: 2'-F C and U
Turning to B3, the binding result (in the series with Factor Xa; in [5]) was “no binding” in each case.

B4: T18.3 (ssRNA)
RNA: B2 RNA
modifications: 2'-F C and U
As for B4, the binding result with Factor Xa is “no binding”.

B5: FV R8c7 (ssRNA)
RNA: GGGAGGACGAUGCGGUCGCCCAAACUUGGAUAACCUCACCGCAAUGGCGGCUUGUCAGACGACUCGCUGAGGAUCCGAGA
modifications: 2'-F C and U
With B5, the binding result in [2] and in [6] was “binds” in each case.
Take GGAUCCAACGCACAAUUACGUGCCUUGUCAGACGACUCGCUGAGGAUCC (ssRNA, 2'-F C and U) [11HMT]: the Kd worked out at 23.2 nM in series [7] and 0.822 nM in series [8].
With GGAUCCAACGCACAAUUACGUGCCGGUUCAGACGACUCGCUGAGGAUCC (ssRNA, 2'-F C and U) [11Mut2], the binding result in series [9] and in series [10] was “no binding” each time.
